This note sets out measurements from patent US20160257759A1 (SORRENTO THERAPEUTICS, published 2016).

For assay [1], the target named is T1, human JAG1 on cells (K562 cells; Calu-6 cells) (human, UniProt P78504 34-1218). As to the kind of experiment: cell-based or functional assay.
Assay [2] deals with T1, human JAG1 on cells (K562 cells; Calu-6 …). The experiment in a line: flow cytometry on K562 cells, IgG titrated, PE anti-human IgG, median fluorescence. The method, then: This example describes a cellular binding assay to determine the EC₅₀ for certain anti-JAG1 antibodies binding to K562 cells (ATCC CCL-243), where the concentration at which 50% binding saturation (EC₅₀) is reached. In this example, K562 cells were resuspended in FACS Buffer (2% Fetal Bovine Serum in PBS) at 1×10⁶ cells/ml. 50 μl (0.5×10⁵ cells) were aliquoted into the wells of a 96-well plate. Plated cells were spun down and the supernatant discarded. Cells were resuspended in serially diluted concentrations of each JAG1 IgG in 30 μl FACS Buffer done in triplicate. The antibodies and cells were incubated for 1 hr at 4° C. and then washed 2× with FACS Buffer. Cells were resuspended in 50 μl goat anti-human IgG (γ-chain specific)-PE-conjugated secondary antibody (Southern Biotech #2040-09) diluted 1:750 in FACS Buffer. Cells were further incubated in the dark for 30 min at 4° C. and then washed 1× with FACS Buffer. The cells were resuspended in a final volume of 30 μl FACS Buffer and analyzed using an Intellicyt Flow Cytometer. Median fluorescence in the FL-2H channel was determined using FlowJo software and EC₅₀ value was determined by a variable slope non-linear regression using ForeCyte software.

For assay [3], the target named is T2, biotinylated human delta-like 1 (DLL1) (human, UniProt O00548 18-540, limits assumed, biotinylated (sites not given)).
T2 sequence (looked up): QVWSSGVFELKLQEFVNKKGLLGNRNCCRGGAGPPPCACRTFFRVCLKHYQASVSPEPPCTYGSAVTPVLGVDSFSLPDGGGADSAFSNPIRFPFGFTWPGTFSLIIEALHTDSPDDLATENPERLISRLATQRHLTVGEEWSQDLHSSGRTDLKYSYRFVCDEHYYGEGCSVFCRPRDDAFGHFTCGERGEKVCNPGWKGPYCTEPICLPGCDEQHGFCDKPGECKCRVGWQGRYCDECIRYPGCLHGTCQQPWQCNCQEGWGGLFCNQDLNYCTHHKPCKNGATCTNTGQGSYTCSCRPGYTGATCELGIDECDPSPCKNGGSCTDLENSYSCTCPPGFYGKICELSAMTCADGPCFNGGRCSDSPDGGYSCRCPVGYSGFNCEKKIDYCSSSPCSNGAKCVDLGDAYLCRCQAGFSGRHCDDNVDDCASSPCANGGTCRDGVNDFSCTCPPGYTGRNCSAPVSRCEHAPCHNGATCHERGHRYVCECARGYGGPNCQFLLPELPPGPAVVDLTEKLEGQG
The experiment in a line: capture ELISA: B10 IgG captured on anti-human lambda, serially diluted biotinylated DLL1, neutravidin-AP, PNPP, absorbance. The method, then:
(§1) Finally, an ELISA assay was carried out to determine antibody cross-reactivity to delta-like 1 (DLL1) and delta-like 2 (DLL2). One ELISA plate was coated with anti-human lambda and another ELISA plate was coated with anti-human kappa overnight at 4° C. The next morning each plate was blocked with a 1:1 mixture of casein:Super Block for 2 hours at room temperature. The B10 IgG was diluted to 0.3 μg/ml in block and added to the anti-human lambda coated wells, while the JG1H7 IgG was diluted to 0.3 μg/ml in block and added to the anti-human kappa coated wells and incubated at room temperature for 3 hours. As a control, other wells were treated with only block. After washing, serially-diluted biotinylated antigen (JAG1, DLL1, DLL2) was added to a column with captured antibody and a control column with no antibody, and incubated 1 hour at room temperature. After washing, neutravidin-AP was added, incubated for 20 min at room temperature, the plate washed and developed with 1-step PNPP, and the plate analyzed in a plate reader.
Background: ELISA stands for enzyme-linked immunosorbent assay.

The target of assay [4] is T3, Recombinant human JAG1/His (human, UniProt P78504 34-1046, limits assumed).
T3 construct: Analyte of the BiaCore assay; also called human JAW [sic]; not shown: His tag
As to the kind of experiment: SPR (BiaCore), antibody captured on anti-human Fc CM5 chip, JAG1/His as analyte, 1:1 Langmuir fit. As for the experimental part:
The binding affinity of antibody JG1H7 for human JAG1 was tested using a BiaCore assay. Specifically, anti-human Fc antibody (GE, BR-1008-39) was immobilized on a CM5 sensor chip to approximately 700 RU using standard NHS/EDC coupling methodology. Antibodies (about 10 μg/ml) were captured for 60 s at a flow rate 10 μl/min. Recombinant human JAG1/His was serially diluted in running buffer (HBS-EP). All measurements were conducted with a flow rate of 30 μL/min Surfaces were regenerated with 3M MgCl₂ for 60 s. A 1:1 (Langmuir) binding model was used to fit the data.
On the technique in general: In SPR one partner is held on a chip, and binding of the other changes the refractive index at the surface.

Another assay has as its target T4, human JAG2-Fc (human, UniProt Q9Y219 24-1080, limits assumed).
T4 construct: not shown: Fc
The experiment in a line: ELISA: plate coated with human JAG2-Fc, serially diluted IgG, labeled goat anti-human Fd antibody, absorbance. The method, then: An ELISA assay was also carried out to determine the ability of the identified antibodies to bind to human JAG2. A 96-well ELISA plate was coated with human JAG2-Fc overnight. The next morning the plate was blocked with casein solution for 1 hour, followed by addition of serially diluted JG1H7 and JG1B10 IgG antibodies. As a control, antibodies were added to wells that were not coated with JAG2-Fc. After incubating for an hour, the plate was washed and labeled goat anti-human FD antibody was added for 30 minutes. The plate was washed, developed with substrate and the absorbance in each well measured on a spectrophotometer.

The target of assay [5] is T2, biotinylated human delta-like 1 (DLL1). As to the kind of experiment: capture ELISA: JG1H7 IgG captured on anti-human kappa, serially diluted biotinylated DLL1, neutravidin-AP, PNPP, absorbance. As for the experimental part: as §1

T1 sequence (P78504 34-1218): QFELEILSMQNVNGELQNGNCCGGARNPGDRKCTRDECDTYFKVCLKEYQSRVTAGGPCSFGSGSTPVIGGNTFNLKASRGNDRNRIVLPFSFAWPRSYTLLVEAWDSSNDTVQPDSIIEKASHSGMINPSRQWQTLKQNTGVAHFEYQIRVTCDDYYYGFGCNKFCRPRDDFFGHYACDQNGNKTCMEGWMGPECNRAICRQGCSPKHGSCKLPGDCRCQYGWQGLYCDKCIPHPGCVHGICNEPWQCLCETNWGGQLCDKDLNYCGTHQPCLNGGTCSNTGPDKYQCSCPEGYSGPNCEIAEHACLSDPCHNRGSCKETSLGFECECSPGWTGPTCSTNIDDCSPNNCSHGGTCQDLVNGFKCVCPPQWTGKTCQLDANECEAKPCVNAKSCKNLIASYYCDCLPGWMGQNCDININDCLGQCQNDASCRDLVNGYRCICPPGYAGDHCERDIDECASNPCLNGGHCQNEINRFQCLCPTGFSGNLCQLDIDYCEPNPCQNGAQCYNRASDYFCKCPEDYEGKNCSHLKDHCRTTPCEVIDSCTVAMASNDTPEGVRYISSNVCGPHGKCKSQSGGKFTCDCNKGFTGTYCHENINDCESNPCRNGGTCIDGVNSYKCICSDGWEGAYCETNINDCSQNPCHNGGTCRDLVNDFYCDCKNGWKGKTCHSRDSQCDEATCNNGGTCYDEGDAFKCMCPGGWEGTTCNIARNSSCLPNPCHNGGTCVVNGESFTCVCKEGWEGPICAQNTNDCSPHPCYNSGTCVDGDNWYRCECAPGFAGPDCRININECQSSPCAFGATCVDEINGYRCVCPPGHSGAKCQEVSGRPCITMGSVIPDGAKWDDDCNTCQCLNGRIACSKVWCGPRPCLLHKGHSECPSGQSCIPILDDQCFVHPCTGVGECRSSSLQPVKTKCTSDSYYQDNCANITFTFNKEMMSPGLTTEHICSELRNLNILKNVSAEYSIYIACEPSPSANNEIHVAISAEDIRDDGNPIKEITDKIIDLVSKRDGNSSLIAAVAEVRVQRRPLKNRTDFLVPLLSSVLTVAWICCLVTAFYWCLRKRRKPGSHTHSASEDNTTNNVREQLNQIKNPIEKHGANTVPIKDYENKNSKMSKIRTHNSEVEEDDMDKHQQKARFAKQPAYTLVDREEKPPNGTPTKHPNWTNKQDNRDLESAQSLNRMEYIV
T4 sequence (Q9Y219 24-1080 limits assumed): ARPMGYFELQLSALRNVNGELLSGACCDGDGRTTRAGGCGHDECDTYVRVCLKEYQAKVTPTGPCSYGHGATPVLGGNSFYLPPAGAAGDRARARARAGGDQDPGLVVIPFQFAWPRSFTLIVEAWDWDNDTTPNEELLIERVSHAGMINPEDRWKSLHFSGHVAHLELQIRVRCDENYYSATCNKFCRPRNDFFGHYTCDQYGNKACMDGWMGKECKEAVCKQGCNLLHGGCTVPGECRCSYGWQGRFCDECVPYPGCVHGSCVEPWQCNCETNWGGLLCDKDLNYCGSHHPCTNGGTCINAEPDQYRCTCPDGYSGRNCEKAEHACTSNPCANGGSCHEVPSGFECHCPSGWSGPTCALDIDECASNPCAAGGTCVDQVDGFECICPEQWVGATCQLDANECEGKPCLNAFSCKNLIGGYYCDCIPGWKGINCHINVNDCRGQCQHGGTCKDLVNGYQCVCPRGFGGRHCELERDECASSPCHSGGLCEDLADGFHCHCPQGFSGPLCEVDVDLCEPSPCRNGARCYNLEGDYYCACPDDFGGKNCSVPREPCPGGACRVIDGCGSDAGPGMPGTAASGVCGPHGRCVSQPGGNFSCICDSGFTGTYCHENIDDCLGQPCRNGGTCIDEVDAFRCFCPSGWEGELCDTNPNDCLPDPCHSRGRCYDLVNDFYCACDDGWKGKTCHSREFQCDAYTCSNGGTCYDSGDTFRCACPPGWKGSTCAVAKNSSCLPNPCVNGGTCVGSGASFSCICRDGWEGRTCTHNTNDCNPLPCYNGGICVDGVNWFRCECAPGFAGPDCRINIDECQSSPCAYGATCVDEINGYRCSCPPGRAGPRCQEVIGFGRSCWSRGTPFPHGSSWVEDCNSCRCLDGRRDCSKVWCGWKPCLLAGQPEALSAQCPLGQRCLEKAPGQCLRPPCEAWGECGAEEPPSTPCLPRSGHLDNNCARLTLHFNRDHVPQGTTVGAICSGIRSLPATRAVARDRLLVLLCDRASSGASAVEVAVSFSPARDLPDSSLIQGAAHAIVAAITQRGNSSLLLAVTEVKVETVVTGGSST

B1: JG1H11 (antibody, V domains shown)
VH: EVQLVESGGGVVQPGRSLRLSCAASGFTFSSYGMHWVRQAPGKGLEWVAVISYDGSNKYYADSVKGRFTISRDNSKNTLYLQMNSLRAEDTAVYYCAKDDWNYALDYWGQGTLVTVSS
VL: QPVLTQPASVSGSPGQSITISCTGTRSDVGGYSYVSWYQQHPGKAPKLIYDVTKRPSGVSNRFSGSKSGNTASLTISGLQAEDEADYYCSSYTSSSTYVFGTGTKVTVL
On to B1, for which, in assay [1], the “IC50 (nM) of killing of Calu-6 cells by the antibody pre-complexed with Protein G-DM1 (1:4), Cell Titer Glo after 6 days” value (from here on “IC50 (nM) of killing of Calu-6 cells”) stood at 26.5 nM. The EC50 (as a rule, the midpoint of the concentration-response curve) in assay [2] worked out at 27 nM.

B2: JG1B10 (antibody, V domains shown)
VH: EVQLVESGGGLVQPGGSLRLSCAASGSTFSSYGMHWVRQAPGKGLEWVAVIWYDGSNKYYADSVKGRFTISRDNSKNTLYLQMNSLRAEDTAVYYCARGYNHDYWGQGTLVTVSS
VL: LPVLTQPASVSGSPGQSITISCTGTSSDVGGYNYVSWYQQHPGKAPKLMIYDVSNRPSGVSNRFSGSKSGNTASLTISGLQAEDEADYYCSSYTSSSTYVFGIGTKLTVL
notes: also called B10JAG1
B2: the “IC50 (nM) of killing of Calu-6 cells” value in assay [1] was 1.35 nM. In assay [2], this molecule had an EC50 of 32 nM. Moreover, the binding result in assay [3] is “no binding”.

B3: JH1F4 (antibody, V domains shown)
VH: QVQLVQSGAEVKKPGASVKVSCKASGYTFTSYAMHWVRHAPGQRLEWMGWINAGNGNTKYSQKFQGRVTITRDTSASTAYMELSSLRSEDTAVYYCARDLDYYYGMDVWGQGTTVTVSS
VL: QPVLTQPPSASGTPGQRVTISCSGSSSNIGSNIVNWYQQLPGTAPKLLIYSNNRRPSGVPDRFSGSKSGSSASLAISGLQSEDEADYYCAAWDATLGGLYVFGTGTKVTVL
notes: also called JH-F4
As for B3, the response in assay [2] was half-maximal at 97 nM (EC50).

B4: JG1A7 (antibody, V domains shown)
VH: QVQLVESGGGLVKPGGSLRLSCAASGFTFSDYYMSWIRQAPGKGLEWVSYISSSGSTIYYADSVKGRFTISRDNAKNSLYLQMNSLRAEDTAVYYCARVNSGYDAVDYWGQGTLVTVSS
VL: QSALTQPPSVSGAPGQTVTISCTGSRSNIGTYDVHWYQQFAGSAPKLLIYHNNDRSSGVPDRFSGSKSGTSASLAITGLQAEDEAVYFCQSHDNVLGGVFGGGTKLTVL
B4 displayed an EC50 in assay [2] of under 1 nM.

B5: JG1H7 (antibody, V domains shown)
VH: QVQLVQSGGGLIQPGGSLRLSCAASAFTVSNFYMTWVRQAPGKGLEWVSVIDSGGNTYYADSVRGRFTISRDNSKNTLFLQMNSLRAEDTAVYYCARDLGYYYAMDVWGQGTTVTVSS
VL: DIVMTQSPSSLSASVGDRVTITCRASQSISTSLNWYQQKPGKAPKLLIYAASSLQSGVPSRFSGSGSGTDFTLTISSLQPEDFATYYCQQSYSTPTFGQGTKLEIK
notes: captured by anti-human Fc in the BiaCore assay
In the case of B5, the “IC50 (nM) of killing of Calu-6 cells” value in assay [1] amounted to 3.89 nM. The molecule further came in with an EC50 in assay [2] of 16 nM. Besides, in assay [4], the Ka was 4.8e+06 M⁻¹; the dissociation constant (Kd) (commonly the free concentration of one partner at which half of the binding sites on the other are occupied at equilibrium, for simple one-to-one binding) was 208 nM; the koff (as a rule, the rate constant with which the complex falls apart) turned out to be 0.0411 s⁻¹; the on-rate (kon) – broadly, the rate constant with which the complex forms – was found to be 197000 M⁻¹ s⁻¹. For the same molecule, the EC50 (read off the curve) – broadly, the concentration needed to bring the measured effect to its halfway point – in the assay with human JAG2-Fc is about 0.1 µg/mL. The binding result in assay [5] was “no binding”.

B6: JG1C8 (antibody, V domains shown)
VH: EVQLVQSGAEVKKPGSSVKVSCKASGGTFSSYAISWVRQAPGQGLEWMGWISAYNGNTNYAQKLQGRVTMTTDTSTSTAYMELRSLRSDDTAVYYCARSRYDFWSGYYSGMDVWGQGTTVTVSS
VL: NFMLTQPRSVSGSPGQSVTISCTGTSSDVGGYHYVSWYQQHPGKAPKLIIYDVSRRPSGVPDRFSGSKSGNTASLTVSGLQAEDEADYYCSSYGGSNNFVFGTGTKLTVL
In the case of B6, the “IC50 (nM) of killing of Calu-6 cells” value in assay [1] worked out at 87.3 nM. In assay [2], this molecule returned an EC50 of 16 nM.
